Assay results: the supplement of paper PMC11908140

B1: library; numbered along this chain (parent)
chain: MRKPRAAVGSGHRKQAASQEGRQKHAKNNSQAKPSACDGLARQPEEVVLQASVSSYHLFRDVAEVTAFRGSLLSWYDQEKRDLPWRRRAEDEMDLDRRAYAVWVSEVMLQQTQVATVINYYTGWMQKWPTLQDLASASLEEVNQLWAGLGYYSRGRRLQEGARKVVEELGGHMPRTAETLQQLLPGVGRYTAGAIASIAFGQATGVVDGNVARVLCRVRAIGADPSSTLVSQQLWGLAQQLVDPARPGDFNQAAMELGATVCTPQRPLCSQCPVESLCRARQRVEQEQLLASGSLSGSPDVEECAPNTGQCHLCLPPSEPWDQTLGVVNFPRKASRKPPREESSATCVLEQPGALGAQILLVQRPNSGLLAGLWEFPSVTWEPSEQLQRKALLQELQRWAGPLPATHLRHLGEVVHTFSHIKLTYQVYGLALEGQTPVTTVPPGARWLTQEEFHTAAVSTAMKKVFRVYQGQQPGTCMGSKRSQVSSPCSRKKPRMGQQVLDNFFRSHISTDAHSLNSAAQ

Variants of: B1
Assay: 8OG:A repair function score (normalized; synonymous = 0, nonsense = -1) (normalized log-likelihood score); higher = more repair activity (WT-like)
Details: with 8OG:A DNA repair reporter (GFP) in HEK-293 MUTYH KO cells
Procedure, shortened: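 Per-tile Rosace fitness scores were converted to a normalized repair function score anchored on synonymous and nonsense distributions. That scale puts synonymous medians at 0 and nonsense medians at -1. Variants with starting counts under 300 counts per million were discarded. Input came from sorting viable mCherry+ MUTYH knockout HEK-293 cells, carrying lentiviral MUTYH cDNA NNN codon-scan libraries in 10 pg/ml doxycycline and an 8OG:A GFP repair reporter, into GFP+ and GFP− bins at 72 h, three replicates per tile, followed by tile amplicon sequencing.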
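Also: cells sorted at 72 h after reporter transfection.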

Row | Variant | 8OG:A repair function score
1 | MRKPRAAVGSGHRKQAASQEGRQKHAKNNSQAKPSACDGLARQPEEVVLQASVSSYHLFRDVAEVTAFRGSLLSWYDQEKRDLPWRRRAEDEMDLDRRAYAVWVSEVMLQQTQVATVINYYTGWMQKWPTLQDLASASLEEVNQLWAGLGYYSRGRRLQEGARKVVEELGGHMPRTAETLQQLLPGVGRYTAGAIASIAFGQATGVVDGNVARVLCRVRAIGADPSSTLVSQQLWGLAQQLVDPARPGDFNQAAMELGATVCTPQRPLCSQCPVESLCRARQRVEQEQLLASGSLSGSPDVEECAPNTGQCHLCLPPSEPWDQTLGVVNFPRKASRKPPREESSATCVLEQPGALGAQILLVQRPNSGLLAGLWEFPSVTWEPSEQLQRKALLQELQRWAGPLPATHLRHLGEVVHTFSHIKLTYQVYGLALEGQTPVTTVPPGARWLTQEEFHTAAVSTAMKKVFRVYQGQQPGNCMGSKRSQVSSPCSRKKPRMGQQVLDNFFRSHISTDAHSLNSAAQ [T476N] | -0.0111
2 | MRKPRAAVGSGHRKQAASQEGRQKHAKNNSQAKPSACDGLARQPEEVVLQASVSSYHLFRDVAEVTAFRGSLLSWYDQEKRDLPWRRRAEDEMDLDRRAYAVWVSEVMLQQTQVATVINYYTGWMQKWPTLQDLASASLEEVNQLWAGLGYYSRGRRLQEGARKVVEELGGHMPRTAETLQQLLPGVGRYTAGAIASIAFGQATGVVDGNVARVLCRVRAIGADPSSTLVSQQLWGLAQQLVDPARPGDFNQAAMELGATVCTPQRPLCSQCPVESLCRARQRVEQEQLLASGSLSGSPDVEECAPNTGQCHLCLPPSEPWDQTLGVVNFPRKASRKPPREESSATCVLEQPGALGAQILLVQRPNSGLLAGLWEFPSVTWEPSEQLQRKALLQELQRWAGPLPATHLRHLGEVVHTFSHIKLTYQVYGLALEGQTPVTTVPPGARWLTQEEFHTAAVSTAMKKVFRVYQGQQPGFCMGSKRSQVSSPCSRKKPRMGQQVLDNFFRSHISTDAHSLNSAAQ [T476F] | 0.0194
3 | MRKPRAAVGSGHRKQAASQEGRQKHAKNNSQAKPSACDGLARQPEEVVLQASVSSYHLFRDVAEVTAFRGSLLSWYDQEKRDLPWRRRAEDEMDLDRRAYAVWVSEVMLQQTQVATVINYYTGWMQKWPTLQDLASASLEEVNQLWAGLGYYSRGRRLQEGARKVVEELGGHMPRTAETLQQLLPGVGRYTAGAIASIAFGQATGVVDGNVARVLCRVRAIGADPSSTLVSQQLWGLAQQLVDPARPGDFNQAAMELGATVCTPQRPLCSQCPVESLCRARQRVEQEQLLASGSLSGSPDVEECAPNTGQCHLCLPPSEPWDQTLGVVNFPRKASRKPPREESSATCVLEQPGALGAQILLVQRPNSGLLAGLWEFPSVTWEPSEQLQRKALLQELQRWAGPLPATHLRHLGEVVHTFSHIKLTYQVYGLALEGQTPVTTVPPGARWLTQEEFHTAAVSTAMKKVFRVYQGQQPGECMGSKRSQVSSPCSRKKPRMGQQVLDNFFRSHISTDAHSLNSAAQ [T476E] | 0.0105
4 | MRKPRAAVGSGHRKQAASQEGRQKHAKNNSQAKPSACDGLARQPEEVVLQASVSSYHLFRDVAEVTAFRGSLLSWYDQEKRDLPWRRRAEDEMDLDRRAYAVWVSEVMLQQTQVATVINYYTGWMQKWPTLQDLASASLEEVNQLWAGLGYYSRGRRLQEGARKVVEELGGHMPRTAETLQQLLPGVGRYTAGAIASIAFGQATGVVDGNVARVLCRVRAIGADPSSTLVSQQLWGLAQQLVDPARPGDFNQAAMELGATVCTPQRPLCSQCPVESLCRARQRVEQEQLLASGSLSGSPDVEECAPNTGQCHLCLPPSEPWDQTLGVVNFPRKASRKPPREESSATCVLEQPGALGAQILLVQRPNSGLLAGLWEFPSVTWEPSEQLQRKALLQELQRWAGPLPATHLRHLGEVVHTFSHIKLTYQVYGLALEGQTPVTTVPPGARWLTQEEFHTAAVSTAMKKVFRVYQGQQPGMCMGSKRSQVSSPCSRKKPRMGQQVLDNFFRSHISTDAHSLNSAAQ [T476M] | -0.0533
5 | MRKPRAAVGSGHRKQAASQEGRQKHAKNNSQAKPSACDGLARQPEEVVLQASVSSYHLFRDVAEVTAFRGSLLSWYDQEKRDLPWRRRAEDEMDLDRRAYAVWVSEVMLQQTQVATVINYYTGWMQKWPTLQDLASASLEEVNQLWAGLGYYSRGRRLQEGARKVVEELGGHMPRTAETLQQLLPGVGRYTAGAIASIAFGQATGVVDGNVARVLCRVRAIGADPSSTLVSQQLWGLAQQLVDPARPGDFNQAAMELGATVCTPQRPLCSQCPVESLCRARQRVEQEQLLASGSLSGSPDVEECAPNTGQCHLCLPPSEPWDQTLGVVNFPRKASRKPPREESSATCVLEQPGALGAQILLVQRPNSGLLAGLWEFPSVTWEPSEQLQRKALLQELQRWAGPLPATHLRHLGEVVHTFSHIKLTYQVYGLALEGQTPVTTVPPGARWLTQEEFHTAAVSTAMKKVFRVYQGQQPGCCMGSKRSQVSSPCSRKKPRMGQQVLDNFFRSHISTDAHSLNSAAQ [T476C] | -0.0603
6 | MRKPRAAVGSGHRKQAASQEGRQKHAKNNSQAKPSACDGLARQPEEVVLQASVSSYHLFRDVAEVTAFRGSLLSWYDQEKRDLPWRRRAEDEMDLDRRAYAVWVSEVMLQQTQVATVINYYTGWMQKWPTLQDLASASLEEVNQLWAGLGYYSRGRRLQEGARKVVEELGGHMPRTAETLQQLLPGVGRYTAGAIASIAFGQATGVVDGNVARVLCRVRAIGADPSSTLVSQQLWGLAQQLVDPARPGDFNQAAMELGATVCTPQRPLCSQCPVESLCRARQRVEQEQLLASGSLSGSPDVEECAPNTGQCHLCLPPSEPWDQTLGVVNFPRKASRKPPREESSATCVLEQPGALGAQILLVQRPNSGLLAGLWEFPSVTWEPSEQLQRKALLQELQRWAGPLPATHLRHLGEVVHTFSHIKLTYQVYGLALEGQTPVTTVPPGARWLTQEEFHTAAVSTAMKKVFRVYQGQQPGLCMGSKRSQVSSPCSRKKPRMGQQVLDNFFRSHISTDAHSLNSAAQ [T476L] | -0.0267
7 | MRKPRAAVGSGHRKQAASQEGRQKHAKNNSQAKPSACDGLARQPEEVVLQASVSSYHLFRDVAEVTAFRGSLLSWYDQEKRDLPWRRRAEDEMDLDRRAYAVWVSEVMLQQTQVATVINYYTGWMQKWPTLQDLASASLEEVNQLWAGLGYYSRGRRLQEGARKVVEELGGHMPRTAETLQQLLPGVGRYTAGAIASIAFGQATGVVDGNVARVLCRVRAIGADPSSTLVSQQLWGLAQQLVDPARPGDFNQAAMELGATVCTPQRPLCSQCPVESLCRARQRVEQEQLLASGSLSGSPDVEECAPNTGQCHLCLPPSEPWDQTLGVVNFPRKASRKPPREESSATCVLEQPGALGAQILLVQRPNSGLLAGLWEFPSVTWEPSEQLQRKALLQELQRWAGPLPATHLRHLGEVVHTFSHIKLTYQVYGLALEGQTPVTTVPPGARWLTQEEFHTAAVSTAMKKVFRVYQGQQPGKCMGSKRSQVSSPCSRKKPRMGQQVLDNFFRSHISTDAHSLNSAAQ [T476K] | 0.024
8 | MRKPRAAVGSGHRKQAASQEGRQKHAKNNSQAKPSACDGLARQPEEVVLQASVSSYHLFRDVAEVTAFRGSLLSWYDQEKRDLPWRRRAEDEMDLDRRAYAVWVSEVMLQQTQVATVINYYTGWMQKWPTLQDLASASLEEVNQLWAGLGYYSRGRRLQEGARKVVEELGGHMPRTAETLQQLLPGVGRYTAGAIASIAFGQATGVVDGNVARVLCRVRAIGADPSSTLVSQQLWGLAQQLVDPARPGDFNQAAMELGATVCTPQRPLCSQCPVESLCRARQRVEQEQLLASGSLSGSPDVEECAPNTGQCHLCLPPSEPWDQTLGVVNFPRKASRKPPREESSATCVLEQPGALGAQILLVQRPNSGLLAGLWEFPSVTWEPSEQLQRKALLQELQRWAGPLPATHLRHLGEVVHTFSHIKLTYQVYGLALEGQTPVTTVPPGARWLTQEEFHTAAVSTAMKKVFRVYQGQQPGICMGSKRSQVSSPCSRKKPRMGQQVLDNFFRSHISTDAHSLNSAAQ [T476I] | -0.074
9 | MRKPRAAVGSGHRKQAASQEGRQKHAKNNSQAKPSACDGLARQPEEVVLQASVSSYHLFRDVAEVTAFRGSLLSWYDQEKRDLPWRRRAEDEMDLDRRAYAVWVSEVMLQQTQVATVINYYTGWMQKWPTLQDLASASLEEVNQLWAGLGYYSRGRRLQEGARKVVEELGGHMPRTAETLQQLLPGVGRYTAGAIASIAFGQATGVVDGNVARVLCRVRAIGADPSSTLVSQQLWGLAQQLVDPARPGDFNQAAMELGATVCTPQRPLCSQCPVESLCRARQRVEQEQLLASGSLSGSPDVEECAPNTGQCHLCLPPSEPWDQTLGVVNFPRKASRKPPREESSATCVLEQPGALGAQILLVQRPNSGLLAGLWEFPSVTWEPSEQLQRKALLQELQRWAGPLPATHLRHLGEVVHTFSHIKLTYQVYGLALEGQTPVTTVPPGARWLTQEEFHTAAVSTAMKKVFRVYQGQQPGPCMGSKRSQVSSPCSRKKPRMGQQVLDNFFRSHISTDAHSLNSAAQ [T476P] | -0.0234
10 | MRKPRAAVGSGHRKQAASQEGRQKHAKNNSQAKPSACDGLARQPEEVVLQASVSSYHLFRDVAEVTAFRGSLLSWYDQEKRDLPWRRRAEDEMDLDRRAYAVWVSEVMLQQTQVATVINYYTGWMQKWPTLQDLASASLEEVNQLWAGLGYYSRGRRLQEGARKVVEELGGHMPRTAETLQQLLPGVGRYTAGAIASIAFGQATGVVDGNVARVLCRVRAIGADPSSTLVSQQLWGLAQQLVDPARPGDFNQAAMELGATVCTPQRPLCSQCPVESLCRARQRVEQEQLLASGSLSGSPDVEECAPNTGQCHLCLPPSEPWDQTLGVVNFPRKASRKPPREESSATCVLEQPGALGAQILLVQRPNSGLLAGLWEFPSVTWEPSEQLQRKALLQELQRWAGPLPATHLRHLGEVVHTFSHIKLTYQVYGLALEGQTPVTTVPPGARWLTQEEFHTAAVSTAMKKVFRVYQGQQPGDCMGSKRSQVSSPCSRKKPRMGQQVLDNFFRSHISTDAHSLNSAAQ [T476D] | 0.00347
11 | MRKPRAAVGSGHRKQAASQEGRQKHAKNNSQAKPSACDGLARQPEEVVLQASVSSYHLFRDVAEVTAFRGSLLSWYDQEKRDLPWRRRAEDEMDLDRRAYAVWVSEVMLQQTQVATVINYYTGWMQKWPTLQDLASASLEEVNQLWAGLGYYSRGRRLQEGARKVVEELGGHMPRTAETLQQLLPGVGRYTAGAIASIAFGQATGVVDGNVARVLCRVRAIGADPSSTLVSQQLWGLAQQLVDPARPGDFNQAAMELGATVCTPQRPLCSQCPVESLCRARQRVEQEQLLASGSLSGSPDVEECAPNTGQCHLCLPPSEPWDQTLGVVNFPRKASRKPPREESSATCVLEQPGALGAQILLVQRPNSGLLAGLWEFPSVTWEPSEQLQRKALLQELQRWAGPLPATHLRHLGEVVHTFSHIKLTYQVYGLALEGQTPVTTVPPGARWLTQEEFHTAAVSTAMKKVFRVYQGQQPGHCMGSKRSQVSSPCSRKKPRMGQQVLDNFFRSHISTDAHSLNSAAQ [T476H] | -0.0339
12 | MRKPRAAVGSGHRKQAASQEGRQKHAKNNSQAKPSACDGLARQPEEVVLQASVSSYHLFRDVAEVTAFRGSLLSWYDQEKRDLPWRRRAEDEMDLDRRAYAVWVSEVMLQQTQVATVINYYTGWMQKWPTLQDLASASLEEVNQLWAGLGYYSRGRRLQEGARKVVEELGGHMPRTAETLQQLLPGVGRYTAGAIASIAFGQATGVVDGNVARVLCRVRAIGADPSSTLVSQQLWGLAQQLVDPARPGDFNQAAMELGATVCTPQRPLCSQCPVESLCRARQRVEQEQLLASGSLSGSPDVEECAPNTGQCHLCLPPSEPWDQTLGVVNFPRKASRKPPREESSATCVLEQPGALGAQILLVQRPNSGLLAGLWEFPSVTWEPSEQLQRKALLQELQRWAGPLPATHLRHLGEVVHTFSHIKLTYQVYGLALEGQTPVTTVPPGARWLTQEEFHTAAVSTAMKKVFRVYQGQQPGGCMGSKRSQVSSPCSRKKPRMGQQVLDNFFRSHISTDAHSLNSAAQ [T476G] | -0.0416
